In patent publication US20150079071A1, “NON-CATALYTIC DOMAIN TARGETS IN MATRIX METALLOPROTEASE PROTEINS FOR CANCER THERAPIES” (THE REGENTS OF THE UNIVERSITY OF CALIFORNIA, priority 2012, published 2015) one finds fold change of abundance (spectra counts) in FL compared with dPEX data, which are given here for one substance.

The target in experiment [1] is myristoylated alanine-rich C-kinase substrate (MARCKS), endogenous, in conditioned medium of SCp2 cells (mouse) (UniProt P26645). In words: anti-Flag IP from conditioned medium, LC-MS/MS spectra counts; selection criterion that MARCKS passed.
The target of experiment [2] is annexin A2 (ANXA2), endogenous, in conditioned medium of SCp2 cells (mouse) (UniProt P07356). In words: anti-Flag IP from conditioned medium, LC-MS/MS spectra counts; selection criterion that ANXA2 passed.
annexin A2 (ANXA2), endogenous, in conditioned medium of SCp2 cells (mouse), sequence (P07356 2-339 limits assumed): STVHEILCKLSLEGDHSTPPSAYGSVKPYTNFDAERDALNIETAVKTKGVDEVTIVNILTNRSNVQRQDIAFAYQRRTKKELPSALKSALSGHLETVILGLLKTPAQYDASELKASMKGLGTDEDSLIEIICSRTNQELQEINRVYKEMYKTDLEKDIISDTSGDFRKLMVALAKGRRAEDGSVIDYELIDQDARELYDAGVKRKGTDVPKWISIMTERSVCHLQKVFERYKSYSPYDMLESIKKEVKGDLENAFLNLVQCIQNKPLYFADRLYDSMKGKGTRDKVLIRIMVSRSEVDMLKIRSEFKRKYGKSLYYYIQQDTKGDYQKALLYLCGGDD

myristoylated alanine-rich C-kinase substrate (MARCKS), endogenous, in conditioned medium of SCp2 cells (mouse), sequence (P26645 2-309 limits assumed): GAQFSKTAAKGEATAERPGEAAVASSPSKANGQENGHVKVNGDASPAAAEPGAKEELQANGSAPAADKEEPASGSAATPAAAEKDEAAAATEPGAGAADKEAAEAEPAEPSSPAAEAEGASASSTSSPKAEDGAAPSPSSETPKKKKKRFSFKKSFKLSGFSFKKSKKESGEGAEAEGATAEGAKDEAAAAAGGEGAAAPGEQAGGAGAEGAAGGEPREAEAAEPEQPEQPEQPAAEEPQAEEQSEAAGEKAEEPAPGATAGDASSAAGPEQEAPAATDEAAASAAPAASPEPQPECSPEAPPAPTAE

For “Flag-tagged full-length human MMP3 (FL) (from UniProt P08254 18-477) (enzyme)”, the fold change of abundance (spectra counts) in FL compared with dPEX in experiment [1] and in experiment [2] was greater than 1.5 fold each time.
